According to patent US20240262919A1 (SHANGHAITECH UNIVERSITY, published 2024):
Changes are numbered by the printed parent chain. One block for each binder: values may come before it.

How the values were obtained:
[1] = biological target: T1, human IL-18Rβ ECD Fc fusion (118-AP-100, R&D Systems) (human, UniProt O95256 20-356); experiment: ELISA on recombinant human IL-18Rβ, normalised OD 450 nm, Fab with PBS or with saturating IgG 3131 [bottom plot]
T1 construct: Bought protein; also called hIL-18Rβ; recombinant human IL-18Rb; not shown: Fc tag of the bought fusion protein, not described
T1 sequence: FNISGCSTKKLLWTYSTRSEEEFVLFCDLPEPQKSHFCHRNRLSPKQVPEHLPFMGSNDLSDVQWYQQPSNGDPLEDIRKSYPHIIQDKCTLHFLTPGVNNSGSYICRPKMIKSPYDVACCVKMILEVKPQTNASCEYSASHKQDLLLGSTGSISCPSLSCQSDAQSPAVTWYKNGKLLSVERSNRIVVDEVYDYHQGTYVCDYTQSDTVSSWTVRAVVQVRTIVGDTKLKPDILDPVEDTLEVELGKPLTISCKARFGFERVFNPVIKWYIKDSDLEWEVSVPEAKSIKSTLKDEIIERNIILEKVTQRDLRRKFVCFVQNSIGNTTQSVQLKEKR
Excerpt: (§1) The results are presented in FIG. 9, in which the binding signals for purified. […] Error bars represent standard deviation of replicate measurements.

[2] = biological target: T1, human IL-18Rβ ECD Fc fusion …; experiment: ELISA on recombinant human IL-18Rβ, normalised OD 450 nm, Fab with PBS or with saturating IgG 3131 [top plot]
Excerpt: as §1

[3] = biological target: T1, human IL-18Rβ ECD Fc fusion …; experiment: ELISA on recombinant human IL-18Rβ, normalised OD 450 nm, Fab with PBS or with saturating IgG 3131 [middle plot]
Excerpt: as §1

[4] = biological target: T1, human IL-18Rβ ECD Fc fusion …; experiment: multipoint direct binding ELISA (drawn table, column EC50 (nM))
[5] = biological target: T1, human IL-18Rβ ECD Fc fusion …; experiment: biolayer interferometry (BLI) after legend paragraph 36; drawn table, head kd (10^-4 s^-1), Human receptor
[6] = biological target: T1, human IL-18Rβ ECD Fc fusion …; experiment: SPR (Table 5 title), Fab on human receptor
[7] = biological target: T1, human IL-18Rβ ECD Fc fusion …; experiment: biolayer interferometry (BLI) after legend paragraph 36; drawn table, head KD (nM), Human receptor
[8] = biological target: T1, human IL-18Rβ ECD Fc fusion …; experiment: competitive binding ELISA with soluble receptor (drawn table, column IC50 (nM))
[9] = biological target: T1, human IL-18Rβ ECD Fc fusion …; experiment: biolayer interferometry (BLI) after legend paragraph 36; drawn table, head ka (10^4 M^-1 s^-1), Human receptor

B1: 3131 AM2-36 (Fab, V domains shown)
VH: EVQLVESGGGLVQPGGSLRLSCAASGFNLYYSSMHWVRQAPGKGLEWVASIYSSSGSTSYADSVKGRFTISADTSKNTAYLQMNSLRAEDTAVYYCARSSFSHGYGWYGLDYWGQGTLVTVSS
VL: DIQMTQSPSSLSASVGDRVTITCRASQSVSSAVAWYQQKPGKAPKLLIYSASSLYSGVPSRFSGSRSGTDFTLTISSLQPEDFATYYCQQYGYHYAGLITFGQGTKVEIK
notes: Fab
- binding result [1]: binds

B2: 3131 AM2-S-Y (Fab, V domains shown)
VH: B1 VH with S55Y, S57Y, S59Y
VL: B1 VL with S50Y
notes: Fab
- binding result [1]: binds

B3: 3131 AM2-5 (Fab, V domains shown)
VH: B1 VH with S57D, S59H
VL: B1 VL
notes: Fab
- binding result [2]: binds

B4: 3131 AM2-6 (Fab, V domains shown)
VH: B1 VH with S55H, S57G, S59N
VL: B1 VL
notes: Fab
- binding result [2]: binds

B5: 3131 AM2-1 (Fab, V domains shown)
VH: B1 VH with S55Y, S57Y, S59Y
VL: B1 VL with Y95H
notes: Fab
- binding result [2]: binds

B9: 3131 AM2-37 (Fab, V domains shown)
VH: B1 VH
VL: B1 VL with Y95S
notes: Fab
- binding result [1]: binds

B12: 3131 AM2-32 (Fab, V domains shown)
VH: B1 VH with S55Y, S57Y, S59Y
VL: B1 VL with A51S, L54V
notes: Fab
- binding result [1]: binds

B13: 3131 AM2-14 (Fab, V domains shown)
VH: B1 VH with S55Y, S57Y, S59Y
VL: B1 VL with Y95G
notes: Fab
- binding result [2]: binds

B14: 3131 AM2-9 (Fab, V domains shown)
VH: B1 VH with S55Y, S57Y, S59Y
VL: B1 VL with Y95N
notes: Fab
- binding result [2]: binds

B15: 3131 AM2-28 (Fab, V domains shown)
VH: B1 VH with S55Y, S57Y, S59Y
VL: B1 VL with A51R, L54D, Y55S
notes: Fab
- binding result [3]: binds

B16: 3131 AM2-25 (Fab, V domains shown)
VH: B1 VH with S55Y, S57Y, S59Y
VL: B1 VL with L54R, Y55D
notes: Fab
- binding result [3]: binds

B17: 3131 AM2-S-H (Fab, V domains shown)
VH: B1 VH with S55Y, S57Y, S59Y
VL: B1 VL with S50H
notes: Fab
- binding result [1]: binds

B18: 3131 AM2-35 (Fab, V domains shown)
VH: B1 VH with S55Y, S57Y, S59Y
VL: B1 VL with Y95S
notes: Fab
- binding result [1]: binds

B20: 3131 AM2-26 (Fab, V domains shown)
VH: B1 VH with S55Y, S57Y, S59Y
VL: B1 VL with A51E, Y55S
notes: Fab
- binding result [3]: binds

B21: 3131 AM2-18 (Fab, V domains shown)
VH: B1 VH with S55G
VL: B1 VL
notes: Fab
- binding result [3]: binds

B22: 3131 AM2-24 (Fab, V domains shown)
VH: B1 VH with S55Y, S57Y, S59Y
VL: B1 VL with A51D
notes: Fab
- binding result [3]: binds

B24: 3131 AM2-17 (Fab, V domains shown)
VH: B1 VH with S55H, S57N, S59D
VL: B1 VL
notes: Fab
- binding result [3]: binds

B25: 3131 AM2-21 (Fab, V domains shown)
VH: B1 VH with S55Y, S57Y, S59Y
VL: B1 VL with A51G, L54G, Y55R
notes: Fab
- binding result [3]: binds

B26: 3131 AM2-S-G (Fab, V domains shown)
VH: B1 VH with S55Y, S57Y, S59Y
VL: B1 VL with S50G
notes: Fab
- binding result [1]: binds

B27: 3131 AM2-13 (Fab, V domains shown)
VH: B1 VH with S55Y, S57Y, S59Y
VL: B1 VL with Y95D
notes: Fab
- binding result [2]: binds

Now from value to binder:

- binding result [1]: binds
B6: 3131 AM2-S-T (Fab, V domains shown)
VH: B1 VH with S55Y, S57Y, S59Y
VL: B1 VL with S50T
notes: Fab

- binding result [2]: binds
B7: 3131 AM2-7 (Fab, V domains shown)
VH: B1 VH with S55H, S57G, S59Y
VL: B1 VL with Y95D
notes: Fab

- binding result [3]: binds
B8: 3131 AM2-30 (Fab, V domains shown)
VH: B1 VH with S55Y, S57Y, S59Y
VL: B1 VL with L54E, Y55R
notes: Fab

- binding result [2]: binds
B10: 3131 AM2-3 (Fab, V domains shown)
VH: B1 VH with S57Y
VL: B1 VL
notes: Fab

- binding result [2]: binds
B11: 3131 AM2-4 (Fab, V domains shown)
VH: B1 VH with S59C
VL: B1 VL
notes: Fab

- binding result [2]: binds
B19: 3131 AM2-2 (Fab, V domains shown)
VH: B1 VH with S55H, S57R, S59G
VL: B1 VL with L54R, Y55D
notes: Fab

- binding result [1]: binds
B23: 3131 AM2-33 (Fab, V domains shown)
VH: B1 VH with S55Y, S57H
VL: B1 VL
notes: Fab

- binding result [3]: binds
B28: 3131 AM2-31 (Fab, V domains shown)
VH: B1 VH with S55Y, S57Y, S59Y
VL: B1 VL with A51E
notes: Fab

- binding result [3]: binds
B29: 3131 AM2-15 (Fab, V domains shown)
VH: B1 VH with S57D, S59G
VL: B1 VL
notes: Fab

- EC50 [4]: 0.086 µM
- koff [5]: 0.0015 s⁻¹
- Kd [6]: 0.078 µM
- koff [6]: 0.0016 s⁻¹
- kon [6]: 20000 M⁻¹ s⁻¹
- Kd [7]: 0.03 µM
- IC50 [8]: 0.105 µM
- kon [9]: 51000 M⁻¹ s⁻¹
B30: Fab A3 (Fab)
heavy: EVQLVESGGGLVQPGGSLRLSCAASGFNLYSSYIHWVRQAPGKGLEWVASIYSSSGYTYYADSVKGRFTISADTSKNTAYLQMNSLRAEDTAVYYCARSVHSYYSSAAYYAMDYWGQGTLVTVSSASTKGPSVFPLAPSSKSTSGGTAALGCLVKDYFPEPVTVSWNSGALTSGVHTFPAVLQSSGLYSLSSVVTVPSSSLGTQTYICNVNHKPSNTKVDKKVEPKSCDKTHT
light: DIQMTQSPSSLSASVGDRVTITCRASQSVSSAVAWYQQKPGKAPKLLIYSASSLYSGVPSRFSGSRSGTDFTLTISSLQPEDFATYYCQQSYFLITFGQGTKVEIKRTVAAPSVFIFPPSDSQLKSGTASVVCLLNNFYPREAKVQWKVDNALQSGNSQESVTEQDSKDSTYSLSSTLTLSKADYEKHKVYACEVTHQGLSSPVTKSFNRGECGGSDYKDDDDK
notes: also called FA3
